Measured values published in PMC3518449 (The Biochemical journal, 2012).
Where “and” joins values, the source holds several entries; their conditions need not be identical. Equal entries are not always repeated.

T1: CYP1A2 (Oryctolagus cuniculus, UniProt P00187)
T1 chain: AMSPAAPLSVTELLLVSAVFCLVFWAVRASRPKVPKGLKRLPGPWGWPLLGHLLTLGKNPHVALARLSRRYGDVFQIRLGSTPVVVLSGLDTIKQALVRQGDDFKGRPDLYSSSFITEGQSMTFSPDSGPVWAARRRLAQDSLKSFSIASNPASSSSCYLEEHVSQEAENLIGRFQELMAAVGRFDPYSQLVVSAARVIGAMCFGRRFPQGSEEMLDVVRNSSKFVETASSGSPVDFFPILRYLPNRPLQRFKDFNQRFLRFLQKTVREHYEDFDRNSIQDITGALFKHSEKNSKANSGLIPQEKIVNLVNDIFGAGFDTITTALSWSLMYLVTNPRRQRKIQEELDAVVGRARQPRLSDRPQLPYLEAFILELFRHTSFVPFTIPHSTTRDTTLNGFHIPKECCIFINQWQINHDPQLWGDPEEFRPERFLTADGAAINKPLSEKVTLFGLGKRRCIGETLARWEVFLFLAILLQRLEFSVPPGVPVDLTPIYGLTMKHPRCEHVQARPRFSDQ


How the values were obtained:
CYP1A2 = molecular target: T1, CYP1A2; test: enzyme activity titration
cross-linking = molecular target: the molecule itself; test: cross-linking

| Kd (CYP1A2) [nM] | Binder | stoichiometry N (cross-linking) |
| --- | --- | --- |
| 12 | POR (protein) MADSHGDTGATMPEAAAQEASVFSMTDVVLFSLIVGLITYWFLFRKKKEEVPEFTKIQAPTSSSVKESSFVEKMKKTGRNIVVFYGSQTGTAEEFANRLSKDAHRYGMRGMAADPEEYDLADLSSLPEINNALAVFCMATYGEGDPTDNAQDFYDWLQETDVDLSGVKYAVFGLGNKTYEHFNAMGKYVDQRLEQLGAQRIFELGMGDDDANLEEDFITWREQFWPAVCEHFGVEATGEESSIRQYELVLHTDIDVAKVYQGEMGRLKSYENQKPPFDAKNPFLATVTTNRKLNQGTERHLMHLELDISDSKIRYESGDHVAVYPANDSALVNQLGEILGADLDVVMSLNNLDEESNKKHPFPCPTSYRTALTYYLDITNPPRTNVLYELAQYAADPAEQEQLRKMASSSGEGKELYLSWVVEARRHILAILQDYPSLRPPIDHLCELLPRLQARYYSIASSSKVHPNSVHICAVAVEYETKAGRLNKGVATSWLRAKEPAGENGGRALVPMFVRKSQFRLPFKATTPVIMVGPGTGVAPFIGFIQERAWLRQQGKEVGETLLYYGCRRAAEDYLYREELAGFQKDGTLSQLNVAFSREQAQKVYVQHLLRRDKEHLWRLIHEGGAHIYVCGDARNMARDVQNTFYDIVAELGAMEHAQAVDYVKKLMTKGRYSLDVWS |  |
|  | Cytochrome P450 1A2 (CYP1A2), isolated from rabbit liver microsomes (enzyme, UniProt P00187 1-516, looked up) MAMSPAAPLSVTELLLVSAVFCLVFWAVRASRPKVPKGLKRLPGPWGWPLLGHLLTLGKNPHVALARLSRRYGDVFQIRLGSTPVVVLSGLDTIKQALVRQGDDFKGRPDLYSSSFITEGQSMTFSPDSGPVWAARRRLAQDSLKSFSIASNPASSSSCYLEEHVSQEAENLIGRFQELMAAVGRFDPYSQLVVSAARVIGAMCFGRRFPQGSEEMLDVVRNSSKFVETASSGSPVDFFPILRYLPNRPLQRFKDFNQRFLRFLQKTVREHYEDFDRNSIQDITGALFKHSEKNSKANSGLIPQEKIVNLVNDIFGAGFDTITTALSWSLMYLVTNPRRQRKIQEELDAVVGRARQPRLSDRPQLPYLEAFILELFRHTSFVPFTIPHSTTRDTTLNGFHIPKECCIFINQWQINHDPQLWGDPEEFRPERFLTADGAAINKPLSEKVTLFGLGKRRCIGETLARWEVFLFLAILLQRLEFSVPPGVPVDLTPIYGLTMKHPRCEHVQARPRFSDQ | 2 and 4 and 5 and 6 |
